± gives the standard deviation of the averaged measurements.
Each sequence was assayed on ATP (assay: switch fluorescence ratio, 500 uM ATP over buffer (Cy3 cluster intensity, sum of 5 cycles each) (fold (ratio)); higher = stronger signal-on switching upon ATP binding; sequences stand for … in TCGTCGGCAGCGTCAGATGTGTATAAGAGACAGTTTTTTTTTTTTTTTTTTTTTTTTT…TC). Conditions: aptamer strand: ATP DNA aptamer (quencher-CACCTGGGGGAGTATTGCGGAGGAAGG + anchor), 100 nM annealed; ATP concentration: 500 uM.
In short: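 For every switch-domain sequence, the fluorescence ratio is the mean of per-cluster values, each being summed target-cycle Cy3 intensity over summed buffer-cycle Cy3 intensity. Clusters outside 100-1000 RFU were excluded. On a modified Illumina MiSeq flow-cell, the Cy3-labelled switching-strand clusters were annealed to 100 nM quencher-labelled ATP aptamer, imaged in selection buffer and then after 15 min with 500 uM ATP at 22 °C. Five such cycles were run, with NaOH stripping and re-annealing between them.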
CGCTCGGTTA was tested, and the switch fluorescence ratio was 0.956 ± 0.031. For CGCTCGTGCG, the switch fluorescence ratio was 1 ± 0.017. CGCTGACGGA gave a switch fluorescence ratio of 1.01 ± 0.053. CGCTGAGCTG was tested, and the switch fluorescence ratio was 1 ± 0.029. For CGCTGAGTTT, the switch fluorescence ratio was 0.993 ± 0.021. With CGCTGCTAAT the switch fluorescence ratio was 1.58 ± 0.08. CGCTGGCCGG gave a switch fluorescence ratio of 0.972 ± 0.037. CGCTGGGGGG gave a switch fluorescence ratio of 1.02 ± 0.048. CGCTGTGACT gave a switch fluorescence ratio of 1.02 ± 0.031. CGCTTAACGT was tested, and the switch fluorescence ratio was 1.05 ± 0.096. Sequence CGCTTAATCT has a switch fluorescence ratio of 1.07 ± 0.018. CGCTTAGGTT showed a switch fluorescence ratio of 1.06 ± 0.061. With CGCTTATAGG the switch fluorescence ratio was 1.03 ± 0.052. CGCTTATGCA gave a switch fluorescence ratio of 1.02 ± 0.02. Work on CGCTTGTCAC yielded a switch fluorescence ratio of 1.18 ± 0.021. Work on CGCTTGTGTT yielded a switch fluorescence ratio of 0.9821 ± 0.0015. CGCTTTACTA showed a switch fluorescence ratio of 2.21 ± 0.07. For CGCTTTAGTG, the switch fluorescence ratio was 1.01 ± 0.014. In the case of CGCTTTAGTT, the switch fluorescence ratio is reported as 0.986 ± 0.026. Work on CGCTTTTGGG yielded a switch fluorescence ratio of 0.999 ± 0.03. CGGAAAAAGC was tested, and the switch fluorescence ratio was 0.985 ± 0.028. CGGAAAATTA was tested, and the switch fluorescence ratio was 1.015 ± 0.0067. CGGAAACATT gave a switch fluorescence ratio of 1.04 ± 0.039. CGGAAAGAAG showed a switch fluorescence ratio of 0.989 ± 0.046. For CGGAAAGCAG, the switch fluorescence ratio was 1.02 ± 0.028. CGGAAAGGGG gave a switch fluorescence ratio of 0.978 ± 0.021. Sequence CGGAACCGGG has a switch fluorescence ratio of 1.03 ± 0.024. With CGGAACGCTC the switch fluorescence ratio was 1.71 ± 0.025. In the case of CGGAAGACGT, the switch fluorescence ratio is reported as 1.02 ± 0.036. For CGGAAGGCAT, the switch fluorescence ratio was 1.04 ± 0.025. Sequence CGGAATAATT has a switch fluorescence ratio of 1.04 ± 0.025. For CGGAATAGTG, the switch fluorescence ratio was 1.2 ± 0.039. For CGGAATTCAC, the switch fluorescence ratio was 1.39 ± 0.017. CGGACCGATG was tested, and the switch fluorescence ratio was 1.01 ± 0.0094. With CGGACTCAAA the switch fluorescence ratio was 1.12 ± 0.025. For CGGAGAAGGG, the switch fluorescence ratio was 0.974 ± 0.029. Sequence CGGAGAGAGG has a switch fluorescence ratio of 1.01 ± 0.015. Sequence CGGAGAGCTG has a switch fluorescence ratio of 1.04 ± 0.014. With CGGAGATAGT the switch fluorescence ratio was 1.02 ± 0.028. CGGAGCTACG was tested, and the switch fluorescence ratio was 1.49 ± 0.04. For CGGAGGAGC, the switch fluorescence ratio was 1.02 ± 0.016. Work on CGGAGGAGGG yielded a switch fluorescence ratio of 1.21 ± 0.3. Sequence CGGAGGAGTA has a switch fluorescence ratio of 1.03 ± 0.03. CGGAGGGGAG showed a switch fluorescence ratio of 0.977 ± 0.011. In the case of CGGAGTGTGT, the switch fluorescence ratio is reported as 1.01 ± 0.016. With CGGATATAAG the switch fluorescence ratio was 1.01 ± 0.013. With CGGATATTGT the switch fluorescence ratio was 0.995 ± 0.028. CGGATCGACA gave a switch fluorescence ratio of 0.976 ± 0.025. CGGATCGGTG showed a switch fluorescence ratio of 0.991 ± 0.019. CGGATCTGAG showed a switch fluorescence ratio of 1.01 ± 0.078. Sequence CGGATGAGGC has a switch fluorescence ratio of 1.08 ± 0.018. CGGATGCGTT gave a switch fluorescence ratio of 0.981 ± 0.024. CGGATGGATC showed a switch fluorescence ratio of 1.02 ± 0.041. In the case of CGGATGTGGT, the switch fluorescence ratio is reported as 0.973 ± 0.016. CGGATGTGTT was tested, and the switch fluorescence ratio was 0.951 ± 0.048. CGGATGTTTT gave a switch fluorescence ratio of 0.984 ± 0.02. In the case of CGGATTTTCA, the switch fluorescence ratio is reported as 0.9999 ± 0.0067. Sequence CGGCACGTGG has a switch fluorescence ratio of 0.998 ± 0.021. For CGGCACGTTA, the switch fluorescence ratio was 1.06 ± 0.025. In the case of CGGCAGAGGG, the switch fluorescence ratio is reported as 1.02 ± 0.022. With CGGCAGCCGG the switch fluorescence ratio was 1.01 ± 0.062. Sequence CGGCAGGCGG has a switch fluorescence ratio of 1.05 ± 0.044. Sequence CGGCAGGGGA has a switch fluorescence ratio of 1.05 ± 0.051. CGGCAGTATC was tested, and the switch fluorescence ratio was 1.51 ± 0.12. CGGCATTGGG was tested, and the switch fluorescence ratio was 1.02 ± 0.04. For CGGCCCAAGG, the switch fluorescence ratio was 1.22 ± 0.022. Work on CGGCCCGTAG yielded a switch fluorescence ratio of 1.02 ± 0.036. For CGGCCTTGCA, the switch fluorescence ratio was 1.026 ± 0.0095. In the case of CGGCGTACTG, the switch fluorescence ratio is reported as 1.03 ± 0.059. Work on CGGCGTGAGC yielded a switch fluorescence ratio of 0.993 ± 0.067. Work on CGGCGTGTAT yielded a switch fluorescence ratio of 1 ± 0.055. For CGGCTAGGGT, the switch fluorescence ratio was 0.998 ± 0.021. In the case of CGGCTAGTCT, the switch fluorescence ratio is reported as 0.993 ± 0.13. Sequence CGGCTATGTT has a switch fluorescence ratio of 0.9712 ± 0.0027. Sequence CGGCTCCTCA has a switch fluorescence ratio of 1.08 ± 0.045. CGGCTGACTG showed a switch fluorescence ratio of 1.05 ± 0.019. For CGGCTGGGCT, the switch fluorescence ratio was 0.988 ± 0.024. With CGGCTTAAGG the switch fluorescence ratio was 1.01 ± 0.019. In the case of CGGCTTAATA, the switch fluorescence ratio is reported as 1.02 ± 0.019. Work on CGGCTTGTTG yielded a switch fluorescence ratio of 1.01 ± 0.017. For CGGGAAAGTT, the switch fluorescence ratio was 1.02 ± 0.04. With CGGGAACTCT the switch fluorescence ratio was 1.013 ± 0.0054. Work on CGGGAATAAA yielded a switch fluorescence ratio of 0.993 ± 0.016. CGGGAATCGA showed a switch fluorescence ratio of 1 ± 0.012. CGGGACAGTG gave a switch fluorescence ratio of 0.957 ± 0.024. For CGGGACGTGT, the switch fluorescence ratio was 0.969 ± 0.021. CGGGAGAAAT gave a switch fluorescence ratio of 1.24 ± 0.34. In the case of CGGGAGAGGA, the switch fluorescence ratio is reported as 0.988 ± 0.033. In the case of CGGGAGAGGT, the switch fluorescence ratio is reported as 0.988 ± 0.011. Work on CGGGAGCTGT yielded a switch fluorescence ratio of 1.01 ± 0.072. With CGGGAGGGGC the switch fluorescence ratio was 1.02 ± 0.058. In the case of CGGGAGGGGG, the switch fluorescence ratio is reported as 1.06 ± 0.07. Work on CGGGAGGTGC yielded a switch fluorescence ratio of 1.02 ± 0.033. With CGGGAGTTCG the switch fluorescence ratio was 0.992 ± 0.077. Work on CGGGATACGG yielded a switch fluorescence ratio of 1.19 ± 0.065. CGGGATAGGC showed a switch fluorescence ratio of 1.12 ± 0.02. With CGGGATATAT the switch fluorescence ratio was 0.994 ± 0.028. Work on CGGGATCCAG yielded a switch fluorescence ratio of 1.01 ± 0.0094. Work on CGGGCAATTT yielded a switch fluorescence ratio of 1.38 ± 0.1. For CGGGCAGGTT, the switch fluorescence ratio was 1.11 ± 0.18. With CGGGCATATA the switch fluorescence ratio was 1.1969 ± 8.5e-05. In the case of CGGGCATCGA, the switch fluorescence ratio is reported as 0.995 ± 0.061. In the case of CGGGCATGCT, the switch fluorescence ratio is reported as 1.04 ± 0.034. With CGGGCCGGGC the switch fluorescence ratio was 0.983 ± 0.029. CGGGCCGGGG showed a switch fluorescence ratio of 1.02 ± 0.033. CGGGCGCGGA was tested, and the switch fluorescence ratio was 1.01 ± 0.048. In the case of CGGGCGCGTG, the switch fluorescence ratio is reported as 0.978 ± 0.053. CGGGCGGGAT gave a switch fluorescence ratio of 1.04 ± 0.029. CGGGCTAACA showed a switch fluorescence ratio of 0.972 ± 0.017. In the case of CGGGCTAAGA, the switch fluorescence ratio is reported as 1.02 ± 0.041. Work on CGGGCTTGGT yielded a switch fluorescence ratio of 1.01 ± 0.032. In the case of CGGGCTTTAA, the switch fluorescence ratio is reported as 0.995 ± 0.026. CGGGCTTTAT was tested, and the switch fluorescence ratio was 1.006 ± 0.0073. For CGGGCTTTGG, the switch fluorescence ratio was 1.01 ± 0.035. CGGGGAAAGT gave a switch fluorescence ratio of 0.996 ± 0.015. For CGGGGACAGA, the switch fluorescence ratio was 0.984 ± 0.041. Work on CGGGGACGGC yielded a switch fluorescence ratio of 0.98 ± 0.025. Work on CGGGGACTTC yielded a switch fluorescence ratio of 1.02 ± 0.019. In the case of CGGGGATTGA, the switch fluorescence ratio is reported as 0.97 ± 0.03. For CGGGGCAAGG, the switch fluorescence ratio was 0.984 ± 0.057. Work on CGGGGCACCA yielded a switch fluorescence ratio of 0.99 ± 0.032. In the case of CGGGGCAGGG, the switch fluorescence ratio is reported as 1.01 ± 0.062. For CGGGGCGCGC, the switch fluorescence ratio was 1.02 ± 0.044. Sequence CGGGGCGGTG has a switch fluorescence ratio of 1.02 ± 0.037. CGGGGCGTGT was tested, and the switch fluorescence ratio was 0.988 ± 0.046. CGGGGCTAGC showed a switch fluorescence ratio of 1.02 ± 0.026. Work on CGGGGCTATG yielded a switch fluorescence ratio of 0.997 ± 0.0053. In the case of CGGGGCTGCT, the switch fluorescence ratio is reported as 1.01 ± 0.018. Sequence CGGGGCTGTG has a switch fluorescence ratio of 1 ± 0.013. CGGGGGAAAA showed a switch fluorescence ratio of 1.03 ± 0.054. CGGGGGAAAG was tested, and the switch fluorescence ratio was 1.01 ± 0.041. In the case of CGGGGGAAGT, the switch fluorescence ratio is reported as 0.981 ± 0.068. CGGGGGACAG gave a switch fluorescence ratio of 1.03 ± 0.066. CGGGGGACTA gave a switch fluorescence ratio of 0.985 ± 0.015. CGGGGGAGCA showed a switch fluorescence ratio of 1.01 ± 0.017. With CGGGGGCAAG the switch fluorescence ratio was 1.07 ± 0.016. In the case of CGGGGGCGGT, the switch fluorescence ratio is reported as 0.998 ± 0.03. CGGGGGGA gave a switch fluorescence ratio of 1.39 ± 0.54. Sequence CGGGGGGAGA has a switch fluorescence ratio of 1.03 ± 0.061. Work on CGGGGGGCCA yielded a switch fluorescence ratio of 1.016 ± 0.0048. In the case of CGGGGGGGAG, the switch fluorescence ratio is reported as 1.01 ± 0.067. With CGGGGGGGGC the switch fluorescence ratio was 1.02 ± 0.044. CGGGGGTCCG showed a switch fluorescence ratio of 0.926 ± 0.087. Sequence CGGGGGTGTA has a switch fluorescence ratio of 0.995 ± 0.026. Sequence CGGGGGTGTG has a switch fluorescence ratio of 0.993 ± 0.035. CGGGGTAGTG showed a switch fluorescence ratio of 0.999 ± 0.02. With CGGGGTATTC the switch fluorescence ratio was 0.964 ± 0.078. CGGGGTGAGA gave a switch fluorescence ratio of 0.9809 ± 0.0069. For CGGGGTGCAC, the switch fluorescence ratio was 1.05 ± 0.023. Sequence CGGGGTGTCT has a switch fluorescence ratio of 1.02 ± 0.071. CGGGGTGTGT showed a switch fluorescence ratio of 1.01 ± 0.023. In the case of CGGGGTGTTT, the switch fluorescence ratio is reported as 1.012 ± 0.0055. Work on CGGGGTTCGT yielded a switch fluorescence ratio of 0.983 ± 0.028.

— the supplement of paper PMC10126150
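Note: ATP exposure 15 min at 22 °C before imaging.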
